The RNAGym collection of RNA variant scans (doi:10.7554/elife.80360)

B1: HDV Ribozyme (parent)
chain: GGCCGGCAUGGUCCCAGCCUCCUCGCUGGCGCCGGCUGGGCAACAUUCCGAGGGGACCGUCCCCUCGGUAAUGGCGAAUGGGACCCA

Variants of: B1
Assay: self-cleavage, relative activity (ratio to wild type); higher = more cleavage; co-transcriptional

Variant	self-cleavage
G38U U47G	0.166
G38U U65G	0.233
G38U U72A	0.0378
G39A A42C	0
G39A A43U	0.0241
G39A A45G	0.629
G39A A56C	0.447
G39A A56U	0.676
G39A A70G	0.483
G39A A71U	0.383
G39A A77G	0.141
G39A A87C	0.578
G39A A87G	0.517
G39A C49A	0.573
G39A C57G	0.591
G39A C58G	0.363
G39A C61A	0.546
G39A C61U	0.54
G39A C62A	0.554
G39A C62G	0.129
G39A C63U	0.503
G39A C84G	0.0852
G39A G50A	0.445
G39A G53U	0.504

Variant	self-cleavage
G39A G54C	0.369
G39A G54U	0.517
G39A G59C	0.546
G39A G59U	0.598
G39A G67U	0.351
G39A G74U	0.176
G39A G76A	0.421
G39A G80C	0.145
G39A G81A	0.0898
G39A G82U	0.0536
G39A U47A	0.356
G39A U60G	0.404
G39A U65G	0.264
G39A U72G	0.102
G39C A42C	0.244
G39C A45G	0.0923
G39C A51U	0.219
G39C A70C	0.175
G39C A71C	0.0978
G39C C48A	0.125
G39C C49G	0.219
G39C C61G	0.196
G39C C61U	0.233
G39C C62A	0.244

Variant	self-cleavage
G39C C63G	0.0437
G39C C64A	0.0369
G39C C86G	0.259
G39C C86U	0.208
G39C G40A	0.695
G39C G50A	0.246
G39C G52C	0.309
G39C G53C	0
G39C G53U	0.133
G39C G54A	0.188
G39C G55A	0.211
G39C G55U	0.305
G39C G59A	0.23
G39C G59C	0.162
G39C G73U	0.106
G39C G74A	0.36
G39C G76U	0.831
G39C G80U	0.101
G39C G81U	0.143
G39C G82A	0.0308
G39C G82U	0.0791
G39C U47C	0.166
G39C U69A	0.17
G39C U72A	0.0426

Variant	self-cleavage
G39U A42C	0.237
G39U A42U	0.378
G39U A43C	0.237
G39U A45G	0.743
G39U A70C	0.536
G39U A70G	0.637
G39U A87C	0.646
G39U A87G	0.661
G39U C41G	0.46
G39U C44A	0.0627
G39U C48A	0.658
G39U C48G	0.862
G39U C48U	0.594
G39U C58U	0.716
G39U C61U	0.58
G39U C63G	0.507
G39U C84A	0.495
G39U C84G	0.348
G39U C85U	0.674
G39U C86G	0.784
G39U G40A	0.807
G39U G40C	0.451
G39U G50C	0.598
G39U G53U	0.587

Variant	self-cleavage
G39U G54C	0.76
G39U G55C	0.698
G39U G59A	0.636
G39U G67A	0.698
G39U G67C	0.746
G39U G73A	0.249
G39U G74A	0.669
G39U G74C	0.23
G39U G74U	0.382
G39U G76A	0.67
G39U G76C	0.724
G39U G81A	0.228
G39U G82C	0.168
G39U U60A	0.623
G39U U60C	0.772
G39U U65A	0.627
G39U U69G	0.635
G39U U72G	0.284
G40A A42G	0.475
G40A A43C	0.601
G40A A45G	0.815
G40A A51G	0.749
G40A A70G	0.914
G40A A70U	0.868

Variant	self-cleavage
G40A A71G	0.748
G40A A77G	1.05
G40A A87U	1.02
G40A C41U	0.87
G40A C49G	0.944
G40A C61G	1.17
G40A C62G	0.432
G40A C66A	0.808
G40A C84A	0.917
G40A C86G	1.01
G40A C86U	0.989
G40A G50A	0.884
G40A G52A	0.858
G40A G52U	0.683
G40A G54C	0.926
G40A G55C	1.01
G40A G59A	0.87
G40A G73U	0.554
G40A G74C	0.485
G40A G74U	0.732
G40A G76C	0.947
G40A G76U	0.843
G40A G82C	0.0665
G40A G82U	0.198

Variant	self-cleavage
G40A U46C	0.525
G40A U65A	0.914
G40A U69G	0.712
G40A U72G	0.437
G40C A42G	0.196
G40C A43G	0.136
G40C A45G	0.32
G40C A45U	0.211
G40C A51C	0.111
G40C A77C	0.151
G40C A77G	0.271
G40C A83U	0
G40C C49G	0.261
G40C C57A	0.295
G40C C57G	0.36
G40C C57U	0.354
G40C C58U	0.354
G40C C61U	0.192
G40C C62U	0.324
G40C C63U	0.409
G40C C66A	0.282
G40C C66G	0.253
G40C C85G	0.16
G40C C86A	0.363

Variant	self-cleavage
G40C G54C	0.343
G40C G67U	0.323
G40C G68C	0.177
G40C G73A	0.223
G40C G73C	0.185
G40C G74C	0.0652
G40C G76C	0.197
G40C G80A	0.0723
G40C G80U	0.0817
G40C U46C	0.117
G40C U60A	0.25
G40C U65G	0.237
G40C U69A	0.119
G40U A42U	0.496
G40U A51U	0.806
G40U A70G	0.528
G40U A78G	0.199
G40U A83C	0.453
G40U A83G	0.597
G40U A87G	0.578
G40U C41G	0.729
G40U C58A	0.67
G40U C58U	0.669
G40U C64A	0.57

Variant	self-cleavage
G40U C64U	0.59
G40U C75G	0.166
G40U G53A	0.715
G40U G54U	0.665
G40U G59U	0.732
G40U G67A	0.699
G40U G74C	0.111
G40U G74U	0.468
G40U G80A	0.197
G40U G81U	0.0989
G40U U46C	0.227
G40U U47G	0.46
C41A A42C	0.739
C41A A42U	0.743
C41A A56G	1.15
C41A A70C	0.527
C41A A70G	0.916
C41A A78U	0.354
C41A A83G	0.732
C41A C44G	0.323
C41A C48G	0.898
C41A C49G	0.91
C41A C58G	0.935
C41A C62G	0.324

Variant	self-cleavage
C41A C64G	0.884
C41A C66A	0.804
C41A C66G	0.91
C41A C86G	0.739
C41A G55C	0.831
C41A G59A	0.844
C41A G59C	0.911
C41A G67A	0.914
C41A G67U	0.739
C41A G73A	0.912
C41A G73U	0.873
C41A G74U	0.513
C41A G76A	0.845
C41A G80C	0.164
C41A G81A	0.242
C41A G82A	0.223
C41A G82C	0.289
C41A G82U	0.348
C41A U47C	0.932
C41A U47G	1.08
C41A U65A	0.914
C41A U69C	0.898
C41A U69G	0.975
C41A U79A	0.656

Variant	self-cleavage
C41G A51G	0.499
C41G A51U	1.18
C41G A70U	0.746
C41G A83G	0.759
C41G A87C	0.65
C41G C44U	0.403
C41G C49G	0.597
C41G C49U	0.608
C41G C58A	0.895
C41G C58U	0.746
C41G C62A	0.814
C41G C62U	0.815
C41G C63U	0.844
C41G C85G	0.429
C41G C85U	0.629
C41G C86U	0.657
C41G G50A	0.911
C41G G50C	0.554
C41G G54U	0.739
C41G G68U	0.596
C41G G73U	0.378
C41G G80U	0.124
C41G G81C	0.138
C41G G81U	0.166

Variant	self-cleavage
C41G G82C	0.158
C41G U47A	1.12
C41G U60A	0.733
C41G U65C	0.745
C41G U72A	0.499
C41G U72C	0.201
C41U A45G	0.575
C41U A45U	0.884
C41U A56C	1.04
C41U A70C	0.803
C41U A78G	0.724
C41U C44A	0.353
C41U C44G	0.492
C41U C48G	0.955
C41U C57A	0.986
C41U C61G	0.923
C41U C62G	0.426
C41U C63U	1.12
C41U C64A	0.906
C41U C64G	0.635
C41U C64U	0.892
C41U C75A	0.0665
C41U C84G	0.589
C41U C85A	0.937

Variant	self-cleavage
C41U C85G	0.911
C41U C86U	0.967
C41U G52C	0.819
C41U G53A	1.12
C41U G55A	1.06
C41U G68U	0.504
C41U G73A	0.929
C41U G73C	0.507
C41U G74C	0.174
C41U G74U	0.806
C41U G82A	0.246
C41U G82U	0.261
C41U U46A	0.942
C41U U47C	0.799
C41U U47G	0.95
C41U U60C	0.906
C41U U69C	0.955
C41U U79C	0.332
A42C A45C	0.0462
A42C A51G	0.26
A42C A51U	0.369
A42C A56G	0.415
A42C A70G	0.312
A42C A71G	0.361

Variant	self-cleavage
A42C A77C	0.161
A42C A77U	0.369
A42C A83C	0.101
A42C A87U	0.283
A42C C49G	0.178
A42C C58G	0.26
A42C C63U	0.19
A42C C66A	0.332
A42C C75A	0.116
A42C C85G	0.469
A42C C86A	0.312
A42C C86G	0.353
A42C C86U	0.178
A42C G52U	0.282
A42C G55U	0.409
A42C G67U	0.261
A42C G68A	0.253
A42C G68U	0.128
A42C G73C	0.119
A42C G74C	0.166
A42C G80C	0.101
A42C U47C	0.0791
